US8603949B2, “Libraries of optimized cytochrome P450 enzymes and the optimized P450 enzymes” (California Institute of Technology, priority 2003, dated 2013)
Entries after “also recorded” stand apart in the source; their conditions may differ.

B1: A3: third parent P450 of the seven-crossover library (protein, listed as Bacillus subtilis)
chain: KQASAIPQPKTYGPLKNLPHLEKEQLSQSLWRIADELGPIFRFDFPGVSSVFVSGHNLVAEVCDEKRFDKNLGKGLQKVREFGGDGLATSWTHEPNWQKAHRILLPSFSQKAMKGYHSMMLDIATQLIQKWSRLNPNEEIDVADDMTRLTLDTIGLCGFNYRFNSFYRDSQHPFITSMLRALKEAMNQSKRLGLQDKMMVKTKLQFQKDIEVMNSLVDRMIAERKANPDENIKDLLSLMLYAKDPVTGETLDDENIRYQIITFLIAGHETTSGLLSFAIYCLLTHPEKLKKAQEEADRVLTDDTPEYKQIQQLKYIRMVLNETLRLYPTAPAFSLYAKEDTVLGGEYPISKGQPVTVLIPKLHRDQNAWGPDAEDFRPERFEDPSSIPHHAYKPFGNGQRACIGMQFALQEATMVLGLVLKHFELINHTGYELKIKEALTIKPDDFKITVKPRKTAAINVQRKEQA
B2: Chimera 169-197: CYP102A1 heme domain with residues 169-197 from CYP102A2 (protein)
chain: TIKEMPQPKTFGELKNLPLLNTDKPVQALMKIADELGEIFKFEAPGRVTRYLSSQRLIKEACDESRFDKNLSQALKFVRDFAGDGLATSWTHEKNWKKAHNILLPSFSQQAMKGYHAMMVDIAVQLVQKWERLNADEHIEVPEDMTRLTLDTIGLCGFNYRFNSFYRDTPHPFINSMVRALDEAMHQMQRLDVQDKLYDENKRQFQEDIKVMNDLVDKIIADRKASGEQSDDLLTHMLNGKDPETGEPLDDENIRYQIITFLIAGHETTSGLLSFALYFLVKNPHVLQKAAEEAARVLVDPVPSYKQVKQLKYVGMVLNEALRLWPTAPAFSLYAKEDTVLGGEYPLEKGDELMVLIPQLHRDKTIWGDDVEEFRPERFENPSAIPQHAFKPFGNGQRACIGQQFALHEATLVLGMMLKHFDFEDHTNYELDIKETLTLKPEGFVVKAKSKKIPLGGIPSPST
modifications: Chimeric Cytochrome P450 heme group sequence from Bacillus megaterium and Bacillus subtilis
notes: CYP102A1 heme domain with residues 169-197 from CYP102A2
B3: Chimera 165-256: CYP102A1 heme domain with residues 165-256 from CYP102A2 (protein)
chain: TIKEMPQPKTFGELKNLPLLNTDKPVQALMKIADELGEIFKFEAPGRVTRYLSSQRLIKEACDESRFDKNLSQALKFVRDFAGDGLATSWTHEKNWKKAHNILLPSFSQQAMKGYHAMMVDIAVQLVQKWERLNADEHIEVPEDMTRLTLDTIGLCGFNYRFNSYYRETPHPFINSMVRALDEAMHQMQRLDVQDKLMVRTKRQFRYDIQTMFSLVDSIIAERRANGDQDEKDLLARMLNVEDPETGEKLDDENIRFQIITFLIAGHETTSGLLSFALYFLVKNPHVLQKAAEEAARVLVDPVPSYKQVKQLKYVGMVLNEALRLWPTAPAFSLYAKEDTVLGGEYPLEKGDELMVLIPQLHRDKTIWGDDVEEFRPERFENPSAIPQHAFKPFGNGQRACIGQQFALHEATLVLGMMLKHFDFEDHTNYELDIKETLTLKPEGFVVKAKSKKIPLGGIPSPST
modifications: Chimeric Cytochrome P450 heme group sequence from Bacillus megaterium and Bacillus subtilis
notes: CYP102A1 heme domain with residues 165-256 from CYP102A2

Columns and labels:
[1] = Library plate screen on five test substrates (4-AAP, 12-pNCA); format: biochemical; details: seven-crossover library, cell lysate, 20 mM H2O2
Method: These library plates were replicated and grown in 96 deep-well plates in 900 μL of LB media with 100 μg/ml ampicillin overnight at 30° C. and 250 rpm. 150 μL of this was then transferred to 850 μL of induction media (TB-media with final concentrations of 100 μg/ml ampicillin, 25 μg/ml thiamine, 0.5 mM δ-aminolevulinic acid and 0.6 mM IPTG). These were grown for 20-24 hours at 25° C. and 190 rpm, harvested by centrifugation at 5000×g for 8 minutes and frozen at -20° C. for at least 24 hours. Cells were resuspended using a pipetting robot (Multimek 96, Beckman) and lysed in 400 μL of Epps or Tris buffer (100 mM, pH 8.2) containing 0.8 mg/ml lysozyme and 2 units/mL DNaseI for 1 hour at 37° C. Plates were then spun for 8 minutes at 5000×g and 4° C. to pellet cell debris. 80 μL of lysate was transferred into 4 separate 96 well plates for each library plate. […] On one plate, high -throughput carbon monoxide spectroscopy was done in order to assess relative amounts of P450 (Otey, C. R. High-throughput carbon monoxide binding assay for cytochromes P450. In Directed Enzyme Evolution: Screening and Selection Methods, F. H. Arnold and […]. 137-139 (2003)) with 0.1 M sodium hydrosulfite being used in place of 0.4 M. The other three plates were used to assay activity on different substrates. Examples of assays that have been or could be used include the 4-AAP (Otey, C. R., and Joern, J. M. High-throughput screen for aromatic hydroxylation. In Directed Enzyme Evolution: Screening and Selection Methods, F. H. Arnold and […]. 141-148 (2003)), 12-pNCA (Schwaneberg et al., Anal. Biochem., 269:359-366 (1999), NBP assay ([…], et al., J Biomol Screen, 9:141-146 (2004)), 7-ethoxyresorufin (Sieber et al., Nat Biotechnol., 19:456-460 (2001)), vivid substrate assays (Marks et al., Assay Drug Dev Technol 1, 73-81 (2002); Marks et al., AAPS PharmSci 5, E18 (2003)), and purpald assays (Peters et al., J Am Chem Soc 125:13442-13450 (2003)). Since the heme domains were being used, the hydrogen peroxide was used to drive the reactions via the peroxide shunt (Cirino, P. C., and Arnold, F. H., Advanced Synthesis & Catalysis 344, 932-937 (2002)). The 4-AAP assay detects phenol-like compounds and consists of the addition of 40 μL of a 3.5× substrate solution (containing substrate concentrations dependent for each substrate) to 80 μL of lysate. […] Then a 7×(140 mM) H2O2 hydrogen peroxide solution was added resulting in a final concentration of 20 mM hydrogen peroxide. The reaction was mixed and left at room temperature without shaking for two hours and then quenched with 140 μL of 0.1 m NaOH and 4 M Urea. 38 μL of 0.6% 4-aminoantipyrine was added followed by blanking of the 96-well plate reader at 500 nm. 38 μL of 0.6% potassium persulfate was added and after 20 minutes the A500 was read. […]

[2] = Peroxygenase activity, hydroxylation of 12-pNCA; format: biochemical; details: 250 μM 12-pNCA
Method: (§1) The chimeras were assayed for hydroxylation of p-nitrophenoxydodecanoic acid (12-pNCA), a fatty acid analog that is hydroxylated by CYP102A1 and CYP102A2 to yield p-nitrophenolate (Schwaneberg et al., Anal Biochem 269,359-366 (1999)). […] When hydroxylation rates for the parent CYP102 enzymes were monitored using the maximum soluble concentrations of these substrates, activity could only be detected on 2-phenoxy-ethanol.
(§2) This Example provides one method by which peroxygenase activity of a P450 enzyme may be characterized. First order rates for p-nitrophenolate accumulation were determined using 1 μM enzyme, 20 mM H2O2, 250 μM 12-pNCA and 0.5% dimethyl sulfoxide (DMSO) in 100 mM Tris-HCl (pH 8.2) at room temperature. Enzyme, substrate, buffer and DMSO were combined in a cuvette and zeroed at 410 nm. Reaction mixtures were incubated for 4 minutes and initiated by the addition of H2O2 to a final concentration of 20 mM. Initial rates were determined by monitoring the accumulation of p-nitrophenolate at 410 nm, and data from the first six seconds were used to determine initial rates. […] The extinction coefficient of p-nitrophenolate is 13,200 M^−1cm^−1 (Schwaneberg et al., Anal Biochem 269:359-366 (1999)).

[3] = Peroxidase activity with ABTS and H2O2; format: biochemical; details: for Peroxidase activity: 10 mM ABTS, 20 mM H2O2, pH 5.0, activities <0.2 not detectable (N.D.)
Source text: P450s can reduce peroxide to water (and a proton) using a mechanism similar to that of peroxidases, although the intrinsic rate for P450s is many orders of magnitude slower. (Mansuy, D., Comp Biochem Physiol C Pharmacol Toxicol Endocrinol 121, 5-14 (1998)). It has been proposed that the earliest P450 function may have been as a peroxidase. (Gotoh, O., Cytochrome P450, 2nd Edition, pp. 255-272 (1993)). To investigate how recombination affects P450 peroxidase activity, the colorimetric substrate 2,2′-azino-bis(3-ethylbenzothiazoline-6-sulfonate) (ABTS) was used to monitor this reaction (Childs et al., Biochem J 145,93-103 (1975)).
This example provides an example of how one can measure peroxidase activity. Initial rates of peroxidase activity were measured by monitoring the accumulation of the radical cation of ABTS at 414 nm (Childs et al., Biochem J., 145:93-103 (1975)). Enzyme (1 μM) was mixed with 10 mM ABTS in 200 mM phosphate buffer (pH 5.0) in a cuvette at room temperature. Samples were zeroed and reactions were initiated with the addition of H2O2 to a concentration of 20 mM. The absorbance at 414 nm was monitored for 5 minutes. Rates were determined from the steepest portion of the time course. An extinction coefficient of […] for ABTS was used.

[4] = Thermostability (loss of Soret band at increasing temperatures); format: physicochemical; details: cell extracts heated 10 minutes
Method: Thermostability was assayed by monitoring the loss of the Soret band at increasing temperatures. […] However, thermostability may be important for retention of catalytic activity: the two chimeras that lacked peroxygenase activity were also the least thermostable.
Cell extracts were heated in a thermocycler for 10 minutes at various temperatures, followed by cooling to 4° C. Extracts were centrifuged for 5 minutes at 3500×g to remove any precipitates. Carbon monoxide reduced difference spectroscopy was used to quantitate the amount of P450. The reduction of the carbon monoxide peak was monitored over a range of temperatures.

[5] = Peroxygenase substrate activity profile; format: biochemical; details: 20 mM H2O2
Method: as §1
Chimeras were assayed for peroxygenase activity on 12-pNCA, 2-phenoxy -ethanol and allyloxy-benzene. […] Rates are reported in nmol product/nmol P450/minute. […] Those with no activity include 65-256 and 277-365. Those with new activity include 165-256, 191-335, and 43-135.
as §2
(§3) Rates on 2-phenoxy-ethanol and allyloxy-benzene were determined using 2 μM enzyme, 20 mM H2O2, 1% DMSO, and 1% acetone in 100 mM N-[2-hydroxyethyl]piperazine-N′-[3-propanesulfonic acid] (Epps) (pH 8.2) at room temperature. Substrate concentrations for 2-phenoxy-ethanol (100 mM) and allyloxy benzene (50 mM) maintained saturation. Reactions were initiated by the addition of H2O2 and quenched at appropriate times using an equal volume of a solution containing 4M urea and 100 mM NaOH. 120 μl of 0.6% 4-AAP was added, followed by mixing and addition of 120 μl of 0.6% potassium persulfate. Color was allowed to develop for 20 minutes before absorbance was read at 500 nm. Rates were determined from the linear region of the time course. The major products were determined by GC/MS to be the hemiacetal, which decomposes to phenol. The extinction coefficient for the 4-AAP/phenol complex was determined to be 4,800 M^−1cm^−1. The results can be seen in FIG. 4.

[6] = Peroxygenase activity on allyloxy-benzene (4-AAP assay); format: biochemical; details: 50 mM substrate
Method: as §1, §3

Row | Molecule | activity on test substrates incl. novel substrates (diphenyl ether, allyloxy-benzene) [1] | peroxygenase activity on 12-pNCA [2] | Peroxidase activity [3] | fold increase of peroxidase activity over the most active parent ([3]; ABTS) | peroxidase activity relative to parents ([3]; ABTS) | Tm [4] | substrate activity profile relative to parents [5] | peroxygenase activity on allyloxy-benzene [6]
1 | B1 | no activity towards any of the substrates tested |  |  |  |  |  |  | 
2 | B2 |  | most active; also recorded: significant increase | 100.3 nmol product/nmol P450/min | approximately 40 fold | highest peroxidase and peroxygenase rates; also recorded: significantly higher peroxidase activities | 52 °C | parent-like profiles | 
3 | B3 |  |  | 16.1 nmol product/nmol P450/min |  | significantly higher peroxidase activities | 48 °C | broadest substrate specificity; also recorded: new activity; also recorded: active on all three substrates; also recorded: gained novel activity | highest rates
